This note sets out measurements from patent US20180312557A1, “Leg1 Protein, Leg1 Gene, and Uses and Drugs thereof” (ZHEJIANG UNIVERSITY, priority 2016, published 2018).

Assay [1] concerns Akt phosphorylation in the liver. The experiment in a line: Liver Akt phosphorylation after intragastric administration of mLeg1. Format: in vivo, mouse. How it is done: (§1) 22.1 The column chromatography partially purified mLeg1 protein was intragastrically administered to the mLeg1^Δ/Δ mice at 50 ng of mLeg1 per gram of body weight of the mice.
(§2) 22.2 The mice were sacrificed at different time points (0, 10, 20, 40, 60 min) after intragastric administration and liver samples were collected, an immunoprecipitation experiment was conducted to pull down mLeg1 protein (if there is any) and its interacting protein in the liver by using mLeg1 antibodies Reference may be made to steps 21.2-21.5.
This may result from the fact that mLeg1 binds with EGFR rapidly, and transmitted downstream signals rapidly, as in in vitro experiments, mLeg1 can activate EGFR within 1 minute and the phosphorylation level of EGFR began to decrease within 3 minutes. Further, the inventors of the present disclosure also detected the activation of such intragastrically administered mLeg1 protein on downstream Akt. […] According to the above results, mLeg1 secreted from the salivary glands can be transferred into the liver and activates EGFR in the liver, thereby activating Akt to finally regulate the physiological functions of the liver cells.

A further assay concerns RTKs. The experiment in a line: Phospho-RTK array, HepG2 cells: other RTKs. Particulars: HepG2, Phospho-RTK array (49 RTKs). Format: cell-based, human. How it is done:
(§3) 19.1 The screening of receptor tyrosine kinase was performed by a RTK assay kit (Proteome Profiler Human Phospho-RTK Array Kit, R&D Cat. no. ARY001B) according to the manufacturer's instruction. The kit can detect 49 of 58 RTKs in total. The operation steps are summarized as follows: mLeg1 and a control were used to treat the cells (cells were grown in a 10 cm petri dish) separately, and then 500 μl of lysis buffer17 was used to lyse the cells; the RTK screening membrane was blocked for 1 hour using Assay buffer1 and then coated with a cell lysate for binding overnight, the resultant product was washed three times with 1× Wash Buffer, 10 minutes each time, then added with Anti-Phospho-Tyrosine-HRP Detection Antibody diluted with 1× Array Buffer2 at the ratio of 1:5000 for incubation at room temperature for 2 hours; followed by washing 3 times with 1× Wash Buffer, 10 minutes each time, then applied with Chemi Reagent Mix and developed, and finally imaged in a fluorescent chemiluminescent imager (Clinx Science Instruments Cat. No. 3400) with the signals recorded.

The target of assay [2] is T1, EGFR (Mus musculus, UniProt Q01279).
T1 construct: from tissue; host or cells: liver of mLeg1^Δ/Δ mice
Kind of assay: EGFR interacting with mLeg1 in liver after intragastric administration (co-immunoprecipitation). It counts as in vivo. On the procedure:
as §1, §2

Assay [3] deals with T2, EGFR (Homo sapiens, UniProt P00533).
T2 construct: endogenous in cells; host or cells: HepG2
Kind of assay: Phospho-RTK array and EGFR phosphorylation specific antibody, HepG2 cells: EGFR. It counts as cell-based. How it is done: as §3
Further, the inventors of the present disclosure detected the impact of mLeg1 on intracellular EGFR activation level by an EGFR phosphorylation specific antibody.

Assay [4] deals with Akt phosphorylation of the HepG2 cells. Kind of assay: Akt phosphorylation of HepG2 cells incubated with salivary gland cell culture supernatant (Western blot). It counts as cell-based, human. The following applies: wild type supernatant containing mLeg1. How it is done: 14.1 Culture of human liver cancer cells HepG2: 10% newborn calf serum (GIBCO Cat. No. 16010-159) in DMEM high-glucose culture medium was used to culture the cell line. Cells were kept in a 37° C. incubator with 5% CO2, and saturated humidity. At the time of passage, the culture solution was thoroughly removed, and the left cells was digested with 0.25% typsin (EDTA-free, Sigma Cat. No. T4549), and an appropriate amount of cells were subjected to subculture or subsequent experiments.
14.2 The adherent HepG2 cells were incubated using the culture supernatant of the primary culture of the wild-type mouse salivary gland cells and the culture supernatant of the mLeg1^Δ/Δ mice, and the cell samples were collected 20 minutes later and 10 hours later.
14.3 The content of p-Akt was detected using an Akt phosphorylation antibody by Western blot, so as to reflect Akt phosphorylation level.
On the technique in general: A western blot detects proteins with antibodies after separation by electrophoresis.

Assay [5] has as its target T2, EGFR. Kind of assay: Effect of EGFR inhibitor on mLeg1-induced Akt and EGFR phosphorylation in HepG2 cells. Format: cell-based. Particulars: HepG2, 15 minutes. An excerpt:
20.1 Culture of the HepG2 cell: reference may be made to step 18.1 for details.

B1: mLeg1 protein: mouse secretory protein (SEQ ID NO: 2) encoded by mLeg1 gene, partially purified from salivary glands by column chromatography (protein, listed as Mus musculus)
chain: MAVLASWVWVLAGCFCAAVAEVSDSSDPYPPLWEDSPEQLSDYMMEDGNYIINPWVYTDRMGMYRILLEETAMYFAKYGPENEQNLLWGLPLQFGWQYQSGRLADPTGMTDCGNELNESLCVSVDSWWADINYYLSVIPFLAAVDSGITGISPNQITILPPPKDQMRFCYNVSDCQSAVPGTMNRWRDFFQYMQLNSSDFDGLLNYLWEAHASSLDYPTSAFGDRYNFYSEKEANFEENWAIAVNYLAAARLPTTQNRTYSFQRGLPPRVLVDTDIAPFIPDFTPLQNEVLVSLKLLGDTDRNSGSLSLTLWENLMSTKLARTLFLKAFEEFLATSS
modifications: partially purified
Consider B1, for which the “Akt phosphorylation in the liver” value in assay [1] (10 minutes after intragastric administration) is “increased”. Moreover, the “Akt phosphorylation in the liver” value in assay [1] (40 minutes to 60 minutes after intragastric administration) was “more significant”. Further, the “activity of most of the RTKs” value in the assay with RTKs was “not influenced”. Besides, the “time at which the amount of EGFR that interacts with mLeg1 reached the maximum” value with EGFR [2] was 10 min. The “intracellular EGFR activation level” value with EGFR [3] (EGFR phosphorylation specific antibody) is listed as “could activate the EGFR very rapidly”. The “tyrosine phosphorylation in EGFR” value in the assay with EGFR [3] (HepG2, Phospho-RTK array) is listed as “increases significantly”. In the assay with EGFR [3] (in vitro experiments), the “time within which EGFR is activated” value was at most 1 min and the “time within which the phosphorylation level of EGFR began to decrease” value was at most 3 min. The “time within which Akt phosphorylation is induced” value in assay [4] is at most 20 min. Besides, the EGFR phosphorylation entry in the assay with EGFR [5] (mLeg1 treatment) was “induced EGFR phosphorylation”. The Akt phosphorylation result in the assay with EGFR [5] (partially purified mLeg1 vs BSA control) is recorded as “could be induced”.
